Measurements reported in article PMC10189407 (The Journal of Biological Chemistry, 2023).

Target: Aβ(1–28) (Homo sapiens (assumed), UniProt P05067)
Assay: SPR

Aβ(1–28), sequence (P05067 672-699): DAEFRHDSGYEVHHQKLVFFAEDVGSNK

B1: crenezumab G33S(HC)-NEP fusion, IgG-CTF-2 format (antibody, V domains shown)
VH: EVQLVESGGGLVQPGGSLRLSCAASGFTFSSYSMSWVRQAPGKGLELVASINSNGGSTYYPDSVKGRFTISRDNAKNSLYLQMNSLRAEDTAVYYCASGDYWGQGTTVTVSS
VL: DIVMTQSPLSLPVTPGEPASISCRSSQSLVYSNGDTYLHWYLQKPGQSPQLLIYKVSNRFSGVPDRFSGSGSGTDFTLKISRVEAEDVGVYYCSQSTHVPWTFGQGTKVEIK
binding result: binds

B2: crenezumab G33S(HC)/S56F(LC)-NEP fusion, IgG-CTF-2 format (antibody, V domains shown)
VH: EVQLVESGGGLVQPGGSLRLSCAASGFTFSSYSMSWVRQAPGKGLELVASINSNGGSTYYPDSVKGRFTISRDNAKNSLYLQMNSLRAEDTAVYYCASGDYWGQGTTVTVSS
VL: DIVMTQSPLSLPVTPGEPASISCRSSQSLVYSNGDTYLHWYLQKPGQSPQLLIYKVSNRFFGVPDRFSGSGSGTDFTLKISRVEAEDVGVYYCSQSTHVPWTFGQGTKVEIK
binding result: binds
